Patent publication US20260167699A1 (Chugai, published 2026)

T1: FcγRIIa(R) (human, UniProt P12318 34-217)
T1 construct: extracellular domain; allotype R131; also called 2aR
T1 sequence: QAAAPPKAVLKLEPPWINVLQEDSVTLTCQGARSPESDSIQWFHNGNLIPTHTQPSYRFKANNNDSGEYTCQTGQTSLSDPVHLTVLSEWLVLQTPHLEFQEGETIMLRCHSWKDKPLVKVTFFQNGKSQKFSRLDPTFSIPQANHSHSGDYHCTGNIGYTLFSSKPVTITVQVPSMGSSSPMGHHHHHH

T2: FcγRIIa(H) (human, UniProt P12318 34-217)
T2 construct: extracellular domain; allotype H131; also called 2aH
T2 sequence: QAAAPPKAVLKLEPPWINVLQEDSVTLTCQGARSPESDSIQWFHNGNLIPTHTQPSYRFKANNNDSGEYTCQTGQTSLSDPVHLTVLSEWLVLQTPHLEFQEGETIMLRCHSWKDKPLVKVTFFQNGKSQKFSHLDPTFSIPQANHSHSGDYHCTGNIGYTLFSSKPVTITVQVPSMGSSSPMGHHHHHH

T3: FcγRIIb (human, UniProt P31994 43-217)
T3 construct: extracellular domain; also called 2b
T3 sequence: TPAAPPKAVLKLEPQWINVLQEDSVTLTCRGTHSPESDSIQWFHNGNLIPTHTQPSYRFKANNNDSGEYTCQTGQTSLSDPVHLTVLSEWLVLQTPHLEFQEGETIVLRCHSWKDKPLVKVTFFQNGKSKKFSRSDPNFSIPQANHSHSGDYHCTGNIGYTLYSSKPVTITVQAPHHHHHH


What was measured:
[1] = target: T4, FcγRIa (human, UniProt P12314 16-292); test: SPR (Biacore), antibody captured on chip, FcγR as analyte; relative to GpH7-A5/GpH7-B3/GpL16-k0 = 100
T4 construct: extracellular domain; also called 1a
T4 sequence (P12314 other isoform, or with tags, fused parts or gaps): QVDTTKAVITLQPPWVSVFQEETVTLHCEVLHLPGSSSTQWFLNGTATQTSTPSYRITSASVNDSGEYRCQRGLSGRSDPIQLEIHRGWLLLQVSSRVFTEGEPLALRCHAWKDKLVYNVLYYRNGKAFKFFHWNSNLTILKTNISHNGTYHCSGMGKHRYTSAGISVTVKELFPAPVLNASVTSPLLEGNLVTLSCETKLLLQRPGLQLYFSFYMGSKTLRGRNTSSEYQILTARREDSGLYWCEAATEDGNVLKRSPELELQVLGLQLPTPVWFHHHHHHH

[2] = target: T1, FcγRIIa(R); test: as above
[3] = target: T5, FcγRIIIa (human, UniProt P08637 17-208); test: as above
T5 construct: extracellular domain; also called 3a
T5 sequence (P08637 other isoform, or with tags, fused parts or gaps): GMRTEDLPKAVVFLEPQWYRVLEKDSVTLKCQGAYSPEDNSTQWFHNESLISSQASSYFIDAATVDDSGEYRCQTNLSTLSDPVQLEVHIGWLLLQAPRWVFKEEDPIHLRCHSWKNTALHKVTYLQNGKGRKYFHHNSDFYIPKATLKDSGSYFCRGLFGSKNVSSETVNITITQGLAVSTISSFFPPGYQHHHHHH

[4] = target: T2, FcγRIIa(H); test: as above
[5] = target: T3, FcγRIIb; test: as above
[6] = target: T6, FcγRIIIa extracellular domain with C-terminal His tag (allotype not given) (human, UniProt P08637 17-208); test: SPR (Biacore), captured antibody, FcγRIIIa analyte; binding relative to GpH7-A5/GpH7-B3/GpL16-k0 = 100
T6 construct: extracellular domain; also called 3a
T6 sequence (P08637 other isoform, or with tags, fused parts or gaps): as above

Row | Binder | He/Con 1a (binding activity relative to GpH7-A5/GpH7-B3/GpL16-k0 x 100) [1] | He/Con 2aR (binding activity relative to GpH7-A5/GpH7-B3/GpL16-k0 x 100) [2] | He/Con 3a (binding activity relative to GpH7-A5/GpH7-B3/GpL16-k0 x 100) [3] | He/Con 2aH (binding activity relative to GpH7-A5/GpH7-B3/GpL16-k0 x 100) [4] | He/Con 2b (binding activity relative to GpH7-A5/GpH7-B3/GpL16-k0 x 100) [5] | He/Con 3a [6]
1 | GpH7-A5/GpH7-B3 variant S337_11K/GpL16-k0 (antibody, human IgG1, kappa, Heterodimerized anti-glypican 3 IgG1 antibody with the mutation in only one H chain (GpH7-B3 side); also called He Ab) heavy 1: not shown heavy 2: not shown light: DIVMTQSPLSLPVTPGEPASISCQASESLVHSNRNTYLHWYLQKPGQSPQLLIYKVSNRFSGVPDRFSGSGSGTDFTLKISRVEAEDVGVYYCSQNTHVPPTFGQGTKVEIERTVAAPSVFIFPPSDEQLKSGTASVVCLLNNFYPREAKVQWKVDNALQSGNSQESVTEQDSKDSTYSLSSTLTLSKADYEKHKVYACEVTHQGLSSPVTKSFNRGEC | 101 % of control | 105 % of control | 80.1 % of control | 102 % of control | 103 % of control | 
2 | GpH7-A5/GpH7-B3 variant S337_19Q/GpL16-k0 (antibody, human IgG1, kappa, heterodimerized anti-glypican 3 IgG1; mutation in one H chain only; also called He Ab) heavy 1: not shown heavy 2: not shown light: DIVMTQSPLSLPVTPGEPASISCQASESLVHSNRNTYLHWYLQKPGQSPQLLIYKVSNRFSGVPDRFSGSGSGTDFTLKISRVEAEDVGVYYCSQNTHVPPTFGQGTKVEIERTVAAPSVFIFPPSDEQLKSGTASVVCLLNNFYPREAKVQWKVDNALQSGNSQESVTEQDSKDSTYSLSSTLTLSKADYEKHKVYACEVTHQGLSSPVTKSFNRGEC |  |  |  |  |  | 91.2%
3 | GpH7-A5/GpH7-B3 variant S337_14T/GpL16-k0 (antibody, human IgG1, kappa, Heterodimerized anti-glypican 3 IgG1 antibody with the mutation in only one H chain (GpH7-B3 side); also called He Ab) heavy 1: not shown heavy 2: not shown light: DIVMTQSPLSLPVTPGEPASISCQASESLVHSNRNTYLHWYLQKPGQSPQLLIYKVSNRFSGVPDRFSGSGSGTDFTLKISRVEAEDVGVYYCSQNTHVPPTFGQGTKVEIERTVAAPSVFIFPPSDEQLKSGTASVVCLLNNFYPREAKVQWKVDNALQSGNSQESVTEQDSKDSTYSLSSTLTLSKADYEKHKVYACEVTHQGLSSPVTKSFNRGEC | 102 % of control | 112 % of control | 94 % of control | 110 % of control | 114 % of control | 
4 | GpH7-A5/GpH7-B3 variant S337_14T/GpL16-k0 (antibody, human IgG1, kappa, heterodimerized anti-glypican 3 IgG1; mutation in one H chain only; also called He Ab) heavy 1: not shown heavy 2: not shown light: DIVMTQSPLSLPVTPGEPASISCQASESLVHSNRNTYLHWYLQKPGQSPQLLIYKVSNRFSGVPDRFSGSGSGTDFTLKISRVEAEDVGVYYCSQNTHVPPTFGQGTKVEIERTVAAPSVFIFPPSDEQLKSGTASVVCLLNNFYPREAKVQWKVDNALQSGNSQESVTEQDSKDSTYSLSSTLTLSKADYEKHKVYACEVTHQGLSSPVTKSFNRGEC |  |  |  |  |  | 94%
5 | GpH7-A5/GpH7-B3 variant S337_16H/GpL16-k0 (antibody, human IgG1, kappa, Heterodimerized anti-glypican 3 IgG1 antibody with the mutation in only one H chain (GpH7-B3 side); also called He Ab) heavy 1: not shown heavy 2: not shown light: DIVMTQSPLSLPVTPGEPASISCQASESLVHSNRNTYLHWYLQKPGQSPQLLIYKVSNRFSGVPDRFSGSGSGTDFTLKISRVEAEDVGVYYCSQNTHVPPTFGQGTKVEIERTVAAPSVFIFPPSDEQLKSGTASVVCLLNNFYPREAKVQWKVDNALQSGNSQESVTEQDSKDSTYSLSSTLTLSKADYEKHKVYACEVTHQGLSSPVTKSFNRGEC | 101 % of control | 111 % of control | 100 % of control | 108 % of control | 114 % of control | 
6 | GpH7-A5/GpH7-B3 variant S337_08L/GpL16-k0 (antibody, human IgG1, kappa, heterodimerized anti-glypican 3 IgG1; mutation in one H chain only; also called He Ab) heavy 1: not shown heavy 2: not shown light: DIVMTQSPLSLPVTPGEPASISCQASESLVHSNRNTYLHWYLQKPGQSPQLLIYKVSNRFSGVPDRFSGSGSGTDFTLKISRVEAEDVGVYYCSQNTHVPPTFGQGTKVEIERTVAAPSVFIFPPSDEQLKSGTASVVCLLNNFYPREAKVQWKVDNALQSGNSQESVTEQDSKDSTYSLSSTLTLSKADYEKHKVYACEVTHQGLSSPVTKSFNRGEC |  |  |  |  |  | 90.2%
7 | GpH7-A5/GpH7-B3 variant S337_15Y/GpL16-k0 (antibody, human IgG1, kappa, heterodimerized anti-glypican 3 IgG1; mutation in one H chain only; also called He Ab) heavy 1: not shown heavy 2: not shown light: DIVMTQSPLSLPVTPGEPASISCQASESLVHSNRNTYLHWYLQKPGQSPQLLIYKVSNRFSGVPDRFSGSGSGTDFTLKISRVEAEDVGVYYCSQNTHVPPTFGQGTKVEIERTVAAPSVFIFPPSDEQLKSGTASVVCLLNNFYPREAKVQWKVDNALQSGNSQESVTEQDSKDSTYSLSSTLTLSKADYEKHKVYACEVTHQGLSSPVTKSFNRGEC |  |  |  |  |  | 94.9%
8 | GpH7-A5/GpH7-B3 variant S337_16H/GpL16-k0 (antibody, human IgG1, kappa, heterodimerized anti-glypican 3 IgG1; mutation in one H chain only; also called He Ab) heavy 1: not shown heavy 2: not shown light: DIVMTQSPLSLPVTPGEPASISCQASESLVHSNRNTYLHWYLQKPGQSPQLLIYKVSNRFSGVPDRFSGSGSGTDFTLKISRVEAEDVGVYYCSQNTHVPPTFGQGTKVEIERTVAAPSVFIFPPSDEQLKSGTASVVCLLNNFYPREAKVQWKVDNALQSGNSQESVTEQDSKDSTYSLSSTLTLSKADYEKHKVYACEVTHQGLSSPVTKSFNRGEC |  |  |  |  |  | 100%
9 | GpH7-A5/GpH7-B3 variant S337_11K/GpL16-k0 (antibody, human IgG1, kappa, heterodimerized anti-glypican 3 IgG1; mutation in one H chain only; also called He Ab) heavy 1: not shown heavy 2: not shown light: DIVMTQSPLSLPVTPGEPASISCQASESLVHSNRNTYLHWYLQKPGQSPQLLIYKVSNRFSGVPDRFSGSGSGTDFTLKISRVEAEDVGVYYCSQNTHVPPTFGQGTKVEIERTVAAPSVFIFPPSDEQLKSGTASVVCLLNNFYPREAKVQWKVDNALQSGNSQESVTEQDSKDSTYSLSSTLTLSKADYEKHKVYACEVTHQGLSSPVTKSFNRGEC |  |  |  |  |  | 80.1%

The next lines start with the values.

Row | He/Con 1a (binding activity relative to GpH7-A5/GpH7-B3/GpL16-k0 x 100) [1] | He/Con 2aR (binding activity relative to GpH7-A5/GpH7-B3/GpL16-k0 x 100) [2] | He/Con 3a (binding activity relative to GpH7-A5/GpH7-B3/GpL16-k0 x 100) [3] | He/Con 2aH (binding activity relative to GpH7-A5/GpH7-B3/GpL16-k0 x 100) [4] | He/Con 2b (binding activity relative to GpH7-A5/GpH7-B3/GpL16-k0 x 100) [5] | He/Con 3a [6] | Binder
10 | 101 % of control | 107 % of control | 94.9 % of control | 106 % of control | 109 % of control |  | GpH7-A5/GpH7-B3 variant S337_15Y/GpL16-k0 (antibody, human IgG1, kappa, Heterodimerized anti-glypican 3 IgG1 antibody with the mutation in only one H chain (GpH7-B3 side); also called He Ab) heavy 1: not shown heavy 2: not shown light: DIVMTQSPLSLPVTPGEPASISCQASESLVHSNRNTYLHWYLQKPGQSPQLLIYKVSNRFSGVPDRFSGSGSGTDFTLKISRVEAEDVGVYYCSQNTHVPPTFGQGTKVEIERTVAAPSVFIFPPSDEQLKSGTASVVCLLNNFYPREAKVQWKVDNALQSGNSQESVTEQDSKDSTYSLSSTLTLSKADYEKHKVYACEVTHQGLSSPVTKSFNRGEC
11 | 101 % of control | 108 % of control | 91.2 % of control | 104 % of control | 109 % of control |  | GpH7-A5/GpH7-B3 variant S337_19Q/GpL16-k0 (antibody, human IgG1, kappa, Heterodimerized anti-glypican 3 IgG1 antibody with the mutation in only one H chain (GpH7-B3 side); also called He Ab) heavy 1: not shown heavy 2: not shown light: DIVMTQSPLSLPVTPGEPASISCQASESLVHSNRNTYLHWYLQKPGQSPQLLIYKVSNRFSGVPDRFSGSGSGTDFTLKISRVEAEDVGVYYCSQNTHVPPTFGQGTKVEIERTVAAPSVFIFPPSDEQLKSGTASVVCLLNNFYPREAKVQWKVDNALQSGNSQESVTEQDSKDSTYSLSSTLTLSKADYEKHKVYACEVTHQGLSSPVTKSFNRGEC
12 |  |  |  |  |  | 93.8% | GpH7-A5/GpH7-B3 variant S337_20W/GpL16-k0 (antibody, human IgG1, kappa, heterodimerized anti-glypican 3 IgG1; mutation in one H chain only; also called He Ab) heavy 1: not shown heavy 2: not shown light: DIVMTQSPLSLPVTPGEPASISCQASESLVHSNRNTYLHWYLQKPGQSPQLLIYKVSNRFSGVPDRFSGSGSGTDFTLKISRVEAEDVGVYYCSQNTHVPPTFGQGTKVEIERTVAAPSVFIFPPSDEQLKSGTASVVCLLNNFYPREAKVQWKVDNALQSGNSQESVTEQDSKDSTYSLSSTLTLSKADYEKHKVYACEVTHQGLSSPVTKSFNRGEC
13 | 102 % of control | 112 % of control | 93.8 % of control | 108 % of control | 119 % of control |  | GpH7-A5/GpH7-B3 variant S337_20W/GpL16-k0 (antibody, human IgG1, kappa, Heterodimerized anti-glypican 3 IgG1 antibody with the mutation in only one H chain (GpH7-B3 side); also called He Ab) heavy 1: not shown heavy 2: not shown light: DIVMTQSPLSLPVTPGEPASISCQASESLVHSNRNTYLHWYLQKPGQSPQLLIYKVSNRFSGVPDRFSGSGSGTDFTLKISRVEAEDVGVYYCSQNTHVPPTFGQGTKVEIERTVAAPSVFIFPPSDEQLKSGTASVVCLLNNFYPREAKVQWKVDNALQSGNSQESVTEQDSKDSTYSLSSTLTLSKADYEKHKVYACEVTHQGLSSPVTKSFNRGEC
14 |  |  |  |  |  | 88.3% | GpH7-A5/GpH7-B3 variant S337_07I/GpL16-k0 (antibody, human IgG1, kappa, heterodimerized anti-glypican 3 IgG1; mutation in one H chain only; also called He Ab) heavy 1: not shown heavy 2: not shown light: DIVMTQSPLSLPVTPGEPASISCQASESLVHSNRNTYLHWYLQKPGQSPQLLIYKVSNRFSGVPDRFSGSGSGTDFTLKISRVEAEDVGVYYCSQNTHVPPTFGQGTKVEIERTVAAPSVFIFPPSDEQLKSGTASVVCLLNNFYPREAKVQWKVDNALQSGNSQESVTEQDSKDSTYSLSSTLTLSKADYEKHKVYACEVTHQGLSSPVTKSFNRGEC
